What all share (conditions): protein: recombinant; tags: C-terminal Strep on PafC; copies: 1;1; label: FAM; single strand
The target of one series is T1, PafBC WT (Mycobacterium smegmatis, UniProt A4ZHT0;A0QZ41 1-331;1-318).
T1 sequence 1: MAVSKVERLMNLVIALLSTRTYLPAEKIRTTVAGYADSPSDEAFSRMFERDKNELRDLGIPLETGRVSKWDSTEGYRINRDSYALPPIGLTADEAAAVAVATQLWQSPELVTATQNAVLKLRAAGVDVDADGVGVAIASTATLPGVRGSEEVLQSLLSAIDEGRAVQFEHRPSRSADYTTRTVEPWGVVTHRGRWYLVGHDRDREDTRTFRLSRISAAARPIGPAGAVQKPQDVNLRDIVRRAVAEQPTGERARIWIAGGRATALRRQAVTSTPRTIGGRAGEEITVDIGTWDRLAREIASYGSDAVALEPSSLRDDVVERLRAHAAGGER
T1 sequence 2: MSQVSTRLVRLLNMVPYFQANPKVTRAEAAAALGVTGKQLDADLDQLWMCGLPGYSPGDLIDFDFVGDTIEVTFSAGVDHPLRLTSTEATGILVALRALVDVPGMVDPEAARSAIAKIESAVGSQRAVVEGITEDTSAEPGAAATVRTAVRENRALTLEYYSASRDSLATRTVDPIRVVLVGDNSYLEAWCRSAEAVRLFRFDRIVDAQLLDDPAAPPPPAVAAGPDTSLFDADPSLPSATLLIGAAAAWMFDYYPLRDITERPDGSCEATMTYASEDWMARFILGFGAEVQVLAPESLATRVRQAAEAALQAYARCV
The series can be described thus: EMSA; low micromolar affinity; ssDNA EMSA: 22.5 mM Hepes-KOH pH 7.8, 135 mM NaCl, 20 mM KCl, 5 mM MgCl2, 1 mM DTT, 37 C 15 min, 10 nM DNA, 0-16 uM PafBC; RNAP EMSA: 20 mM Hepes-NaOH pH 8, 100 mM K-acetate, 36 mM NaCl, 10 mM MgCl2, 2 mM DTT, 37 C 30 min. (In general: In EMSA bound probe runs differently from free probe, usually more slowly.)

Another series deals with T2, PafBC, PafB R181A (Mycobacterium smegmatis, UniProt A4ZHT0;A0QZ41 1-331;1-318, R181A).
T2 sequence 1: T1 sequence 1 with R181A
T2 sequence 2: T1 sequence 2
The series can be described thus: EMSA; up to 16 uM; ssDNA EMSA: 22.5 mM Hepes-KOH pH 7.8, 135 mM NaCl, 20 mM KCl, 5 mM MgCl2, 1 mM DTT, 37 C 15 min, 10 nM DNA, 0-16 uM PafBC; RNAP EMSA: 20 mM Hepes-NaOH pH 8, 100 mM K-acetate, 36 mM NaCl, 10 mM MgCl2, 2 mM DTT, 37 C 30 min.

Another series addresses T3, PafBC WYL RR (Mycobacterium smegmatis, UniProt A4ZHT0;A0QZ41 1-331;1-318, R211A;R214A;R201A;R204A).
T3 sequence 1: T1 sequence 1 with R211A, R214A
T3 sequence 2: T1 sequence 2 with R201A, R204A
The description is as above.

Where a chain is given by its changes, count along the chain named.

TTTTTTTTTTTTTTTTTTTT (ssDNA) [dT20 ssDNA]: the binding result in the series with PafBC WT is listed as “binds”; with PafBC, PafB R181A it was “no binding”; with PafBC WYL RR, “no binding”.

These data come from publication PMC11804915, “Single-stranded DNA binding to the transcription factor PafBC triggers the mycobacterial DNA damage response”.
